Where two headings read alike, the source gives them in different places.

The target in one experiment is T1, murine OX40R ECD fusion (mouse, UniProt P47741).
T1 chain: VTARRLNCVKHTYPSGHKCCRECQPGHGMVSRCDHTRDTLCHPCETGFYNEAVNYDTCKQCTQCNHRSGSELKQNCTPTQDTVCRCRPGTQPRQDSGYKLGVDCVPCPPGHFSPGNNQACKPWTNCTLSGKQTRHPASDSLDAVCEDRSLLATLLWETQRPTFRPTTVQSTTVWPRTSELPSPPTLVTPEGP
The experiment is described as follows: ELISA.

For experiment [1], the target named is T2, CD137 (4-1BB) ECD-IgG1 fusion (human, UniProt Q07011). The experiment is described as follows: other, up to 700 nM.
Experiment [2] deals with T3, CD40 ECD-IgG1 fusion (human, UniProt P25942). The experiment is described as follows: other, up to 700 nM.
Experiment [3] has as its target T4, human OX40R extracellular domain fusion protein (CD134-muIg) (human, UniProt P43489).
T4 chain: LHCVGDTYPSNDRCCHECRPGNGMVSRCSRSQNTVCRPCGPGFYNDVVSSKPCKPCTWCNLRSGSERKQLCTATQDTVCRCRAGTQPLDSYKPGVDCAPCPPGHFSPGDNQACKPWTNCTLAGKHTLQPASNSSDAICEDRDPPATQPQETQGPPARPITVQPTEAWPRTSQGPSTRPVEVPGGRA
The experiment is described as follows: SPR.

The target in experiment [4] is T5, CD271 (NGF receptor) ECD-IgG1 fusion (human, UniProt P08138).
T5 chain: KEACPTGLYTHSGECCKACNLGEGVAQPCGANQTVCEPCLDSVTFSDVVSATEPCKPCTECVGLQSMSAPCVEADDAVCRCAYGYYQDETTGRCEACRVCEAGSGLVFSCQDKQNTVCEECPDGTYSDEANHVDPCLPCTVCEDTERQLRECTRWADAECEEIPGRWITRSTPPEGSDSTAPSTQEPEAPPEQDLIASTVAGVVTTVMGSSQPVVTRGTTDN
The experiment is described as follows: other, up to 700 nM.

The target of experiment [5] is T6, human OX40R on cells (human, UniProt P43489).
T6 chain: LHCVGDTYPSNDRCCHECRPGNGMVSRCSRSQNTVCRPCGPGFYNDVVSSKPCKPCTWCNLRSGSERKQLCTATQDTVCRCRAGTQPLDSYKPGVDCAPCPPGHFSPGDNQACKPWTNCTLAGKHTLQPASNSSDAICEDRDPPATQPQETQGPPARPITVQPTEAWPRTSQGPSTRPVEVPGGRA
The experiment is described as follows: FACS, human T cells. (Flow cytometry measures light scatter and fluorescence of single cells or particles in a stream.)

Experiment [6] deals with T4, human OX40R extracellular domain fusion …. The experiment is described as follows: ELISA. (An ELISA detects its analyte on a solid surface through an enzyme-linked reagent.)
Experiment [7] concerns the target T6, human OX40R on cells. The experiment is described as follows: FACS, CD3/CD28 stimulated T cells.
For experiment [8], the target named is T6, human OX40R on cells. The experiment is described as follows: FACS, OX40R+ 300-19 cells.
Experiment [9] addresses T5, CD271 (NGF receptor) ECD-IgG1 fusion. The experiment is described as follows: other, up to 700 nM.
The target of experiment [10] is T2, CD137 (4-1BB) ECD-IgG1 fusion. The experiment is described as follows: other, up to 700 nM. This is another data set of the same source.
For experiment [11], the target named is T3, CD40 ECD-IgG1 fusion. The experiment is described as follows: other, up to 700 nM. This is another data set of the same source.

T2 sequence (Q07011 24-186): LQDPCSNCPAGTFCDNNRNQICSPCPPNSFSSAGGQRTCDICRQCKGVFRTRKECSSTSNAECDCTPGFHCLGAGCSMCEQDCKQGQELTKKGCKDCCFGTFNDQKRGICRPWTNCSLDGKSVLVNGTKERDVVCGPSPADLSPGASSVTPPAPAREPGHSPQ
T3 sequence (P25942 21-193): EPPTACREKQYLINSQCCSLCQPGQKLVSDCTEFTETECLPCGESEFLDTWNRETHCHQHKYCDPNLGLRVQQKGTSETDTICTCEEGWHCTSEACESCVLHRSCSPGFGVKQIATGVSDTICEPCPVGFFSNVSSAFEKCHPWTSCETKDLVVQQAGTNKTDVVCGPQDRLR

B1: 11D4 (antibody, V domains shown)
VH: EVQLVESGGGLVQPGGSLRLSCAASGFTFSSYSMNWVRQAPGKGLEWVSYISSSSSTIDYADSVKGRFTISRDNAKNSLYLQMNSLRDEDTAVYYCARESGWYLFDYWGQGTLVTVSS
VL: DIQMTQSPSSLSASVGDRVTITCRASQGISSWLAWYQQKPEKAPKSLIYAASSLQSGVPSRFSGSGSGTDFTLTISSLQPEDFATYYCQQYNSYPPTFGGGTKVEIK
Consider B1, for which the binding result (in the experiment with murine OX40R ECD fusion; in experiment [1]; with CD40 ECD-IgG1 fusion [2]; in [4]) was “no binding” throughout. Further, the dissociation constant (Kd) in experiment [3] stood at 0.48 nM. Besides, the concentration giving a half-maximal response (EC50) with human OX40R on cells [5] was 0.566 µg/mL; in experiment [6], 3.5 nM; with human OX40R on cells [7], 4 nM; with human OX40R on cells [8] it was 1.7 nM.

B2: 18D8 (antibody, V domains shown)
VH: EVQLVESGGGLVQPGRSLRLSCAASGFTFDDYAMHWVRQAPGKGLEWVSGISWNSGSIGYADSVKGRFTISRDNAKNSLYLQMNSLRAEDTALYYCAKDQSTADYYFYYGMDVWGQGTTVTVSS
VL: EIVVTQSPATLSLSPGERATLSCRASQSVSSYLAWYQQKPGQAPRLLIYDASNRATGIPARFSGSGSGTDFTLTISSLEPEDFAVYYCQQRSNWPTFGQGTKVEIK
Consider B2, for which the binding result (in experiment [9]; in [10]; with CD40 ECD-IgG1 fusion [11]) was “no binding” in each case.

As usually defined, the Kd is the concentration at which binding is half-saturated. Low readings indicate a tighter complex, high ones a looser complex. As a reminder, the EC50 is the concentration at which the effect is half-maximal. High values mean a need for much substance, low ones an effect from little substance.

For the origin of these results see patent US9028824 (dated 2015).
